According to patent publication US8383386:

B1: recombinant factor Xa variant Val17→Ala (protein)
chain 1: ANSFLEEMKKGHLERECMEETCSYEEAREVFEDSDKTNEFWNKYKDGDQCETSPCQNQGKCKDGLGEYTCTCLEGFEGKNCELFTRKLCSLDNGDCDQFCHEEQNSVVCSCARGYTLADNGKACIPTGPYPCGKQTLER
chain 2: IAGGQECKDGECPWQALLINEENEGFCGGTILSEFYILTAAHCLYQAKRFKVRVGDRNTEQEEGGEAVHEVEVVIKHNRFTKETYDFDIAVLRLKTPITFRMNVAPACLPERDWAESTLMTQKTGIVSGFGRTHEKGRQSTRLKMLEVPYVDRNSCKLSSSFIITQNMFCAGYDTKQEDACQGDSGGPHVTRFKDTYFVTGIVSWGEGCARKGKYGIYTKVTAFLKWIDRSMKTRGLPKAKSHAPEVITSSPLK

How the values were obtained:
factor Va = factor Va (UniProt P12259)
factor Va, P12259 = molecular target: T1, factor Va, P12259
T1 chain 1: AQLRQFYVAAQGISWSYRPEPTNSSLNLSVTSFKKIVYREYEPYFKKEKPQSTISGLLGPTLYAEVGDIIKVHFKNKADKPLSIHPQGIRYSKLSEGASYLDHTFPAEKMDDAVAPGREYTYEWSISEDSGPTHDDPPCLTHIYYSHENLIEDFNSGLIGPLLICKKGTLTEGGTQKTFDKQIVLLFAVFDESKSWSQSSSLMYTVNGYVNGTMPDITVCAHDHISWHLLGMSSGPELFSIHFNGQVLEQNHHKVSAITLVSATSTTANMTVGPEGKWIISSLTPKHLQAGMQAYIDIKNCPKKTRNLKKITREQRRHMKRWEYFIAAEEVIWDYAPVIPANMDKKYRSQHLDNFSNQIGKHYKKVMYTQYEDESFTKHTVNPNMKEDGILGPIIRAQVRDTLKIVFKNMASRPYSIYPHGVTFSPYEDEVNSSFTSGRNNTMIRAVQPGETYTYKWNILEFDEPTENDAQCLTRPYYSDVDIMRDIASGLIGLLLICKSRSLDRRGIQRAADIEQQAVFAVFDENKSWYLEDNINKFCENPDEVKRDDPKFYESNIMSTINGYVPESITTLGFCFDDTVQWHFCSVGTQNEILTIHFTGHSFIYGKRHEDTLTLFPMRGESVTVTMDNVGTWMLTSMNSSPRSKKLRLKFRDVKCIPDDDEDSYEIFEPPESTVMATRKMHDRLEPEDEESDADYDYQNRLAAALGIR
T1 chain 2: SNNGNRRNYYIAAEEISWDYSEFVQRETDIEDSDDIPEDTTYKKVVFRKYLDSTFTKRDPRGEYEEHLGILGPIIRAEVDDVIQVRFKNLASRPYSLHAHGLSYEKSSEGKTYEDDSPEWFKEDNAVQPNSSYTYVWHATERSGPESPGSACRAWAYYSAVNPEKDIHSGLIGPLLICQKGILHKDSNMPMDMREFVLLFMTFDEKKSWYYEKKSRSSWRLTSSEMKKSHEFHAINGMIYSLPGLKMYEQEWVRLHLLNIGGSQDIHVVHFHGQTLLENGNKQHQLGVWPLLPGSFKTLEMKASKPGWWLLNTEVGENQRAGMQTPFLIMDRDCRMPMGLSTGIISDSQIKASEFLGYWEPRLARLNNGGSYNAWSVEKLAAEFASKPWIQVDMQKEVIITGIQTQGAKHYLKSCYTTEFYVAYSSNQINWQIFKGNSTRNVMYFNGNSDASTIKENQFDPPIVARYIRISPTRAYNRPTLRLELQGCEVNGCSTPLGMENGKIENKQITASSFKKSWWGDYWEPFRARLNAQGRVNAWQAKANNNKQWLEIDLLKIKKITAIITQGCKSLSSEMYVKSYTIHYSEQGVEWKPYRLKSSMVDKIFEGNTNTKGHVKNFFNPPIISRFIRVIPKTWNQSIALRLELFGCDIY

Row | Molecule | Km for peptidyl substrates after assembly into prothrombinase (factor Va) | Km for peptidyl substrates after assembly into prothrombinase (factor Va, P12259)
1 | recombinant factor Xa variant Ile16→Gly | even the Km value for I235G was almost completely restored (3-fold increased compared to wild-type FXa) when assembled in prothrombinase | 
2 | B1 |  | the assembly of FXaI235L and FXaV236A into prothrombinase almost completely restored the Km for peptidyl substrates
